Reference: article PMC4381339, “Modeling autosomal recessive cutis laxa type 1C in mice reveals distinct functions for Ltbp-4 isoforms” (Disease Models & Mechanisms, 2015)

T1: recombinant full-length fibulin-5 (mouse, UniProt Q9WVH9 24-448)
T1 construct: Fibulin-5, mouse, full length after the signal peptide; also called rfibulin-5; source: HEK 293 EBNA cells, stably expressed, purified from conditioned medium (streptactin-Sepharose)
T1 sequence (looked up): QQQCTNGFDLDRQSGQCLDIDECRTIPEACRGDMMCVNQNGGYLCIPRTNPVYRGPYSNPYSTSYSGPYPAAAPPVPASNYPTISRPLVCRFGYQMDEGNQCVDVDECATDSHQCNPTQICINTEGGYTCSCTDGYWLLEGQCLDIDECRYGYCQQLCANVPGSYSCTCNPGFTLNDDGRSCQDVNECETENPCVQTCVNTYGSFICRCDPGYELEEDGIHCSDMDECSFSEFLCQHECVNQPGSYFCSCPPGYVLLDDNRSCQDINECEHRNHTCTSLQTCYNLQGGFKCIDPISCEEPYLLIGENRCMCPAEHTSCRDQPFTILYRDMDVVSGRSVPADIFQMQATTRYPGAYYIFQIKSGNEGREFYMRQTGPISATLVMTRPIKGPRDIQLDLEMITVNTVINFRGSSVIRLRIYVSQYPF

T2: recombinant full-length fibulin-4 (mouse, UniProt Q9WVJ9 28-443)
T2 construct: Fibulin-4, mouse, full length after the signal peptide; also called rfibulin-4; source: HEK 293 EBNA cells, stably expressed, purified from conditioned medium (streptactin-Sepharose)
T2 sequence (looked up): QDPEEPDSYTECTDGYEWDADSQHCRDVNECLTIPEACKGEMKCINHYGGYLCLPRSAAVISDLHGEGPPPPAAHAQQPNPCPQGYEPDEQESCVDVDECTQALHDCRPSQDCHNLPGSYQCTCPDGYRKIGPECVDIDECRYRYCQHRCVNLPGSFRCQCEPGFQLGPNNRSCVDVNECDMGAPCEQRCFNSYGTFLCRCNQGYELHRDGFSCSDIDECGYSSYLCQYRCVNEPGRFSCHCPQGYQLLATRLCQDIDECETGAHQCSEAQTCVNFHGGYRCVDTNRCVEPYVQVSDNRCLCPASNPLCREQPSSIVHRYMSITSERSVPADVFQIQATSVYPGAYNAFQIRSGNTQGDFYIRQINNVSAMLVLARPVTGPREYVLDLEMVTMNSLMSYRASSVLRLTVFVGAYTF

B1: Ltbp-4S-2xStrep (N-terminal fragment of mouse Ltbp-4S) (domain or fragment, UniProt Q8K4G1-2 27-211, looked up)
chain: RPRERLRVRFTPAVCGLRCIHGPTGSRCTPTCAPRNATSVDSGAPGGAAPGGPGFRAFLCPLICHNGGVCVKPDRCLCPPDFAGKFCQLHSSGARPPAPAMPGLTRSVYTMPLANHRDDEHGVASMVSVHVEHPQEASVVVHQVERVSGPWEEANPEALARAEAAARAEAAAPYTVLAQSAPRED
modifications: N-linked glycosylation (shift after PNGase F), residue not given
notes: the first 185 amino acids after the signal peptide (Arg27-Asp211); numbers count on: the short isoform Ltbp-4S; Cloned into a modified pCEP-Pu vector with a 3' 2xStrepII tag through NheI and XhoI; also called N-terminal Ltbp-4S; Ltbp-4S N-terminal fragment; source: HEK 293 EBNA cells, stably expressed, purified from conditioned medium (streptactin-Sepharose); not shown: 2xStrepII, C-terminal, kept
B2: Ltbp-4L-2xStrep (N-terminal fragment of mouse Ltbp-4L) (domain or fragment, UniProt Q8K4G1-1 25-277, looked up)
chain: SGSSPSPSPSPIEKAVVPSHQAGVAACHCCLDQTPKSSRCTRASCRVRNCPPAKCTGLEGCLTPTPSVPSPSRSPVEKSQVSLNWQPLTLQEARALLRQRRPRGPWARALLKRRPPHRAPAGQARVLCPLICHNGGVCVKPDRCLCPPDFAGKFCQLHSSGARPPAPAMPGLTRSVYTMPLANHRDDEHGVASMVSVHVEHPQEASVVVHQVERVSGPWEEANPEALARAEAAARAEAAAPYTVLAQSAPRED
notes: the first 253 amino acids after the signal peptide (Ser25-Asp277); numbers count on: the long isoform Ltbp-4L; Cloned into a modified pCEP-Pu vector with a 3' 2xStrepII tag through NheI and XhoI; also called N-terminal Ltbp-4L; Ltbp-4L N-terminal fragment; source: HEK 293 EBNA cells, stably expressed, purified from conditioned medium (streptactin-Sepharose); not shown: 2xStrepII, C-terminal, kept

Legend:
[1] = molecular target: rfibulin-4 and rfibulin-5 (mouse); assay: SPR; Ltbp-4L-2xStrep and Ltbp-4S-2xStrep after PNGase F digest under non-denaturing conditions, flown over rfibulin-4 and rfibulin-5 immobilized on a Biacore chip; response compared before and after deglycosylation; n=2
[2] = molecular target: T1, recombinant full-length fibulin-5; assay: SPR; BIAcore2000; 570 RUs of rfibulin-4 or 390 RUs of rfibulin-5 amine-coupled to carboxymethyldextran hydrogel 500M chips; Ltbp-4L-2xStrep (0-320 nM) or Ltbp-4S-2xStrep (0-80 nM) flown over as analyte; 1:1 Langmuir fits, kobs plotted against concentration; apparent Kd = koff/kon; conditions: both partners purified
[3] = molecular target: T2, recombinant full-length fibulin-4; assay: as above; conditions: both partners purified

Molecule | percent increase of the SPR signal after deglycosylation (against Ltbp-4S-2xStrep before deglycosylation) [1] [%] | Kd [2] [nM] | koff [2] [s⁻¹] | kon [2] [M⁻¹ s⁻¹] | Kd [3] [nM] | koff [3] [s⁻¹] | kon [3] [M⁻¹ s⁻¹]
Ltbp-4S-2xStrep after deglycosylation with PNGase F under non-denaturing conditions (domain or fragment) | 15 to 20 |  |  |  |  |  | 
B1 |  | 15.8 | 0.0158 | 1e+06 | 15.4 | 0.0108 | 700000
B2 |  | 2.4 | 0.0053 | 2.2e+06 | 3.1 | 0.0041 | 1.3e+06
